From PMC6641633 (ACS Omega, 2018)

B1: truncated hepatitis B virus capsid protein Cp149, wild type (domain or fragment, UniProt P03146 1-149, looked up)
chain: MDIDPYKEFGATVELLSFLPSDFFPSVRDLLDTASALYREALESPEHCSPHHTALRQAILCWGELMTLATWVGVNLEDPASRDLVVSYVNTNMGLKFRQLLWFHISCLTFGRETVIEYLVSFGVWIRTPPAYRPPNAPILSTLPETTVV
B2: Cp149-D2N/D4N mutant of the truncated hepatitis B virus capsid protein (domain or fragment, UniProt P03146 1-149, looked up)
chain: MNINPYKEFGATVELLSFLPSDFFPSVRDLLDTASALYREALESPEHCSPHHTALRQAILCWGELMTLATWVGVNLEDPASRDLVVSYVNTNMGLKFRQLLWFHISCLTFGRETVIEYLVSFGVWIRTPPAYRPPNAPILSTLPETTVV

Target: the molecule itself
Test: dynamic light scattering

Protein | stoichiometry N
B1 | 2
B2 | 2
